These results are taken from US20110282033A1 (Ablynx, published 2011).

Substitutions are numbered along the chain they refer to.

T1: Recombinant human FGFR4/Fc chimera (R&D Systems Cat #685 FR) (human, UniProt P22455 22-369)
T1 construct: extracellular domain; Bought reagent; also called Fc-FGFR4; not shown: Fc part of the bought chimera (detected with anti-human IgG)
T1 sequence (looked up): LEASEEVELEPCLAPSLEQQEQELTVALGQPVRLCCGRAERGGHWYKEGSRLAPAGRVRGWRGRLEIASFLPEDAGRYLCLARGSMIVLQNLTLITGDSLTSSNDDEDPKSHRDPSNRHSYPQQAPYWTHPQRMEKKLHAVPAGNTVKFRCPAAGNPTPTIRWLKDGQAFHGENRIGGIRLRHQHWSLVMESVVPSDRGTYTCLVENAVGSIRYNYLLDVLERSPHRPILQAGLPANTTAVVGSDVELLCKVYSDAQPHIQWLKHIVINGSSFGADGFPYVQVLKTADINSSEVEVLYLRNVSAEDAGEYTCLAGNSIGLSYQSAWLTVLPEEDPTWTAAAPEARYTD

B1: 73-E6 (VHH)
VHH: EVQLVESGGGLVQAGGSLRLSCAASGSTFTETPFTMHALSWYRQSEGKERELVAAISLAGTTNYADSVKGRFTISRDNGKKAVYLQMNSLKAEDTAVYYCNVGSWFQGYYAMDYWGEGTLVTVSS
notes: Purified Nanobody
B2: 55-B8 (VHH)
VHH: EVQLVESGGGLVQPGGSLRLSCTASTSIFSLYDMGWYRQAPGKERELVARITSGRSINYADSVKGRFTISRDNAKNTVYLQMNSLKPEDTAAYYCNANHHDWGTNWDFWGQGTQVTVSS
notes: Purified Nanobody
B3: 73-A9 (VHH)
VHH: EVQLVESGGGLVQPGESLSLSCTASGSAFGINSMGWYRQAPGKERELVAVMYSDSNTTYTDSVKGRFTISRDYAKNTVYLRMNSLKPEDTAVYFCHCEAIREPGDYYGWHYWGKGTLVTVSS
notes: Purified Nanobody
B4: 73-A7 (VHH)
VHH: EVQLVESGGGLVQPGGSLRLSCAASGFTFGSYDMSWVRQAPGKGPEWVSAINSGGGTTYYADSVKGRFTISRDNAKNTLYLQMNSLKPEDTAVYYCATGRPLWDYSDYADFGSWGQGTQVTVSS
notes: Purified Nanobody
B5: 53-F7 (VHH)
VHH: EVQLVESGGALVQPGGSLRLSCAASGSIVSIDFMGWYRQAPGKQREVVTFITSGGSPNYVDSVEGRFTISRDNAKNTMYLQMNSLKPEDTAVYYCYMQSGTAGSWGQGTQVTVSS
B6: 53-B7 (VHH)
VHH: EVQLVESGGGLVQAGGSLRLDCAASGRTSYAMGWFRQGTGKEREFVAALSPSGYYTYYEDSVKGRFSIHRDNAKNMVYLQMNSLTPEDTAVYYCAAGRHETASGILPNYWGQGIQVTVSS
B7: 53-G8 (VHH)
VHH: B6 VHH with E1K, A47S, L49I, E100Q, A102V, N108D
B8: 53-C4 (VHH)
VHH: B6 VHH with L49I, E100Q, A102V, N108D
B9: 53-C7 (VHH)
VHH: B6 VHH with K41Q, L49I, S67N, A73T, E100K, A102V, N108D
B10: 53-F9 (VHH)
VHH: B6 VHH with L49I, S67F, I68M, E100N, A102V, N108D, Q112R
B11: 53-G7 (VHH)
VHH: B6 VHH with L49I, S67F, E100K, A102V, N108D
B12: 53-F3 (VHH)
VHH: EVQLVESGGGLVQPGGSLRLSCAAPGSIVSINNMGWYRQAPGKQRELVALITSGGTTTYADSVKGRFTISGDNAKKMVYLQMNSLKPEDTAVYYCNAVFTTDTRNWYDYWGQGTQVTVSS
B13: 53-D6 (VHH)
VHH: EVQLVESGGGLVEAGGSLRLSCTASGGTFSTYAMGWFRQAPGKEREFAAAISRNGGSKGYKESVKGRFTISRDNAKNTVYLQMNSLKPEDTAVYYCAASRTYTYSTAMKDYNYWGQGTQVTVSS
B14: 53-A6 (VHH)
VHH: EVQLVESGGGLVQPGGSRRLSCATSASITSISFMGWYRQAPGKQRELVAFIPSSGVPNYVGFAEGRFTISRDDAKNTVYLQMNGLKPEDTAVYYCYLQPLGGSGSWGQGTQVTVSS
B15: 53-A3 (VHH)
VHH: B5 VHH with A10G, S30R, I31V, E64T, M97I
notes: Purified Nanobody
B16: 53-H8 (VHH)
VHH: EVQLVESGGGLVQAGGSLRLTCVVSGRTYNNYVMGWFRQAPGKEREFVAGIDWSSSWTSTTLYADSVKGRFTISRNNAKKTVSLQMNSLKPEDTAVYYCAANLGSKNPSLRPGRETYNYWGQGAQVTVSS
notes: Purified Nanobody
B17: 53-A5 (VHH)
VHH: EVQLVESGGGLVQAGGSLRLTCVVSGRTYNNYVMGWFRQAPGKEREFVAGIDWSSSWSSTLYADSVKGRFTISRNNAKKTVSLQMNSLKPEDTAVYYCAANLGSKNPSLRPGREAYNYWGQGTQVTVSS
notes: Purified Nanobody
B18: 53-G10 (VHH)
VHH: EVQLVESGGGLVQAGGSLRLSCAASGLFFSFYNMGWFRQAPGKEREFVAIIRKTGGSTYYADSVKGRFTISRDNAKNTVYLQMDSLKPEDTAVYYCAAASSYYSDSYYYTRSDKYNYWGQGTQVTVSS
notes: Purified Nanobody
B19: 55-D5 (VHH)
VHH: EVQLVESGGALVQPGGSLRLSCAASGFTFRNYDMSWVRQAPGKGPEWVSSINSGGGSTYYADSVKGRFTISRDNAKNTLYLQMNSLKPEDTAVYYCATGLITTAQAMLEEYDYWGQGTQVTVSS
notes: Purified Nanobody
B20: 73-G9 (VHH)
VHH: EVQLVESGGGLVQPGGSLKLSCAAAGFTFRPYAMGWFRQAPGKEREFVAAVATNVGTTFYQDSVKGRFTISRDNAKNTVYLQMNSLRPEDTAVYYCNTKLYSGIFREYWGQGTQVTVSS
notes: Purified Nanobody

T2 sequence (P09619 33-532, change not shown): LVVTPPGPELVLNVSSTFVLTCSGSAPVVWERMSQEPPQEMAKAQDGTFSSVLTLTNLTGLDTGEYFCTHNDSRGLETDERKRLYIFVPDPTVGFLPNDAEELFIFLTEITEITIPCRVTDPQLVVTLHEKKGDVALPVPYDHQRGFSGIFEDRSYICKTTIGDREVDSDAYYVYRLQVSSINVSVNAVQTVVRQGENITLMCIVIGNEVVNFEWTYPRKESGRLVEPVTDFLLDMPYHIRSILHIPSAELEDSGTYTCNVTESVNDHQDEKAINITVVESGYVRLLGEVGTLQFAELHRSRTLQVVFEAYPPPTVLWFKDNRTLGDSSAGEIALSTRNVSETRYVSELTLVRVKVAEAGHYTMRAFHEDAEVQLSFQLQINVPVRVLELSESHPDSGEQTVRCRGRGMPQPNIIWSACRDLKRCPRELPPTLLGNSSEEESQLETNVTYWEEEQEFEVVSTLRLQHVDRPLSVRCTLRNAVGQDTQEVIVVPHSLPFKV

The first test deals with T1, Recombinant human FGFR4/Fc chimera (R&D …). In words: ELISA: periplasmic extract on coated FGFR4-Fc (500 ng/ml). As for the experimental part: In order to determine binding specificity to FGFR4, the clones were tested in an ELISA binding assay setup, using the monoclonal […]. Shortly, 500 ng/ml of Fc-FGFR4 (R&D Systems Cat #685 FR) was coated on Maxisorp ELISA plates (Nunc) and free binding sites were blocked using 4% Marvel skimmed milk in PBS. After a wash step with PBS, 10 ul of periplasmic extract from the monoclonal inductions of the different clones in 100 ul 2% Marvel PBS were allowed to bind to the FGFR4-Fc. […] 53-G3 was used as a reference since it was selected against PDGFRβ-Fc.
Consider B1, for which the binding result is reported as “binds”.
Still for that read-out and setting: then B2, with “binds”.
Same read-out and setting: then B3, with “binds”.
On the same count and under the same terms, then B4, with “binds”.

A further test addresses T2, Recombinant human PDGFRβ/Fc chimera (R&D Systems Cat #385 PR) (human, UniProt P09619 33-532).
T2 construct: extracellular domain; Bought reagent; also called PDGFRP-Fc; not shown: Fc part of the bought chimera (captured and detected with anti-human IgG)
Briefly: ELISA binding screen on captured PDGFRβ-Fc and ELISA ligand competition. As for the experimental part:
(§1) In order to determine binding specificity to PDGFRβ-Fc, the clones were tested in an ELISA binding assay setup, using the monoclonal phage pools. Shortly, 1 ug/ml of Fc-capturing Ab (Rabbit anti-human IgG, DAKO # A423) was coated on Maxisorp ELISA plates (Nunc) and free binding sites were blocked using 4% Marvel skimmed milk in PBS. Next, 0.1 ug/ml receptor in 2% Marvel/PBS was captured. After a wash step with PBS, 10 ul of supernatant from the monoclonal phage inductions of the different clones in 100 ul 2% Marvel PBS were allowed to bind to the captured PDGFRP-Fc. […] Binding specificity was determined based on OD values compared to controls having received no phage.
Clones tested in the PDGFRβ binding assay were also screened for their ability to block PDGF-BB binding to PDGFRβ-Fc. For this, Nanobody containing periplasmic extracts, or selected purified Nanobodies, were used in an ELISA-based ligand competition setup. In short, 1.0 ug/ml (80 nM) recombinant human PDGF-BB (R&D Systems #220-BB) was coated in 96 well Maxisorp microtiter plates (Nunc) and blocked with 4% Marvel skimmed milk in PBS. In parallel, 1 ug/ml (12 nM) PDGFRβ-Fc chimera was incubated with periplasmic extracts or purified Nanobody. After 1 hour, the receptor-Nanobody pre-mixes were incubated 1 hour with the coated ligand. Bound PDGFRβ-Fc was detected using HRP-conjugated goat anti-human IgG (Jackson Immunoresearch, Cat #109-035-098). Blocking activity was determined as loss of OD signal, as compared to wells where no Nanobodies, or irrelevant Nb, had been added.
Turning to B5, the binding result is given as “binds”.
Still for that read-out and setting: then B6, with “binds”; and B7, with “binds”.
For B8, the binding result was “binds”.
Same read-out and setting: to B9 belongs “binds”; to B10, “binds”.
With B11, the binding result is listed as “binds”.
On the same count and under the same terms, then B12, with “binds”; and B13, with “binds”.
Consider B14, for which the binding result is on record as “binds”.

The next test has as its target T2, Recombinant human PDGFRβ/Fc chimera …. Briefly: phage ELISA on PDGFRβ-Fc (0.1 ug/ml) captured by coated anti-human IgG, detection with HRP anti-M13. As for the experimental part: as §1
For orientation: ELISA stands for enzyme-linked immunosorbent assay.
B15: the binding result is “binds”.

For a further test the target is unchanged. Briefly: competition ELISA: PDGFRβ-Fc (12 nM) pre-mixed with Nanobody, binding to coated PDGF-BB (80 nM), detection with HRP anti-human IgG. On the procedure:
In order to determine the receptor blocking efficiency of clones tested positive for PDGF-BB competition, a dilution series of purified Nanobodies were tested in the ELISA-based ligand competition setup. In short, 1.0 ug/ml (80 nM) recombinant human PDGF-BB (R&D Systems #220-BB) was coated in 96 well Maxisorp microtiter plates (Nunc) and blocked with 4% Marvel skimmed milk in PBS. In parallel, 1 ug/ml (12 nM) PDGFRβ-Fc chimera was incubated with a dilution series of purified Nanobodies. After 1 hour, the receptor-Nanobody pre-mixes were incubated 1 hour with the coated ligand. Bound PDGFRβ-Fc was detected using HRP-conjugated goat anti-human IgG (Jackson Immunoresearch, Cat # 109-035-098). […] Ligand is coated at 80 nM and receptor is added at 12 nM.
On to B16, for which the “IC50 (read off the curve)” value was about 9 nM.
The same measure, in the same setting: to B17 belongs about 8 nM; to B18, about 60 nM.

In a further test the target is T1, Recombinant human FGFR4/Fc chimera (R&D …). Briefly: competition ELISA: FGFR4-Fc with heparin and MgCl2 pre-mixed with Nanobody, binding to coated acidic FGF (129 nM), detection with HRP anti-human IgG. On the procedure: Clones tested in the FGFR4 binding assay were also screened for their ability to block acidic FGF binding to FGFR4-Fc. For this, purified Nanobodies, were used in an ELISA-based ligand competition setup. In short, 2.0 ug/ml (129 nM) human FGF (R&D Systems Cat #232-FA/CF) was coated in 96 well Maxisorp microtiter plates (Nunc) and blocked with 4% Marvel skimmed milk in PBS. In parallel, 0.25 ug/ml (1.9 nM) FGFR4-Fc chimera plus 2.5 μg/ml heparin and 10 mM MgCl₂ were incubated with periplasmic extracts or purified Nanobody. After 1 hour, the receptor-Nanobody pre-mixes were incubated 1 hour with the coated ligand. Bound FGFR4-Fc was detected using HRP-conjugated goat anti-human IgG (Jackson Immunoresearch, Cat #109-035-098). Blocking activity was determined as loss of OD signal, as compared to wells where irrelevant Nanobody had been added. […] Ligand is coated at 129 nM and receptor is added at […].
Take B19: the “IC50 (read off the curve)” value was about 8 nM.
On the same count and under the same terms, to B20 belongs about 10 nM.
